Read-outs that look alike come from different tables or passages of the source.
How the values were obtained:
[1] = molecular target: T1, rHuPH20 (Homo sapiens, UniProt P38567); conditions: for retained % of the original activity / rHuPH20 activity (initial 600 U/mL): 75 mM NaCl
T1 sequence (P38567 36-482): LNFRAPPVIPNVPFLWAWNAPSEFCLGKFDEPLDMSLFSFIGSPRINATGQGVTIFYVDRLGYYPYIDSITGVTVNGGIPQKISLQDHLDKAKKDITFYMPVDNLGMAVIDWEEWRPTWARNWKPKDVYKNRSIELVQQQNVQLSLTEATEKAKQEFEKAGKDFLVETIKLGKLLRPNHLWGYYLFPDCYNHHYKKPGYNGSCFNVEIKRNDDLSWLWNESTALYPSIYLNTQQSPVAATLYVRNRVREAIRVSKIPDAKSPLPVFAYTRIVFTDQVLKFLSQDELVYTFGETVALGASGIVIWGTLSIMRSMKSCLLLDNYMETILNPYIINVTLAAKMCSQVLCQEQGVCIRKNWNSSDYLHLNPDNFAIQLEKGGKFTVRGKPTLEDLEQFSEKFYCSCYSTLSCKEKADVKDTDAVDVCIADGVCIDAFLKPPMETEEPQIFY
Description: The activity of a hyaluronan degrading enzyme can be assessed using methods well known in the art. […] A Hyaluronidase Reference Standard (USP) or National Formulary (NF) Standard Hyaluronidase solution can be used in an assay to ascertain the activity, in units, of any hyaluronidase. In one example, activity is measured using a microturbidity assay. […] The turbidity of the resulting sample is measured at 640 nm after an additional development period.

[2] = Dynamic light scattering, particle size and apparent melting temperature of rHuPH20; assay type: physicochemical; design: unit not given here
[3] = Differential scanning calorimetry, Tm of rHuPH20; assay type: physicochemical; conditions: DSC, presence of […] m-cresol
[4] = 1 week 30° C., pH 7.1, 10 mg/mL HA

B1: rHuPH20: secreted soluble recombinant human PH20 hyaluronidase expressed in CHO cells (nucleic acid encoding amino acids 36-482 of SEQ ID NO:1) (protein, listed as Homo sapiens)
chain: LNFRAPPVIPNVPFLWAWNAPSEFCLGKFDEPLDMSLFSFIGSPRINATGQGVTIFYVDRLGYYPYIDSITGVTVNGGIPQKISLQDHLDKAKKDITFYMPVDNLGMAVIDWEEWRPTWARNWKPKDVYKNRSIELVQQQNVQLSLTEATEKAKQEFEKAGKDFLVETIKLGKLLRPNHLWGYYLFPDCYNHHYKKPGYNGSCFNVEIKRNDDLSWLWNESTALYPSIYLNTQQSPVAATLYVRNRVREAIRVSKIPDAKSPLPVFAYTRIVFTDQVLKFLSQDELVYTFGETVALGASGIVIWGTLSIMRSMKSCLLLDNYMETILNPYIINVTLAAKMCSQVLCQEQGVCIRKNWNSSDYLHLNPDNFAIQLEKGGKFTVRGKPTLEDLEQFSEKFYCSCYSTLSCKEKADVKDTDAVDVCIADGVCIDAFLKPPMETEEPQIFY
modifications: precursor human PH20
Question: What does the source list for B1?
Answer: rHuPH20 enzymatic activity ([1]; 1 mM methionine, 30° C., one month): 525 U/mL; rHuPH20 enzymatic activity ([1]; 20 mM methionine, 30° C., one month): 522 U/mL; retained % of the original activity ([1]; 1 week 30° C., pH 7.1, 1 mg/mL HA): 57%; % of the original rHuPH20 remained ([1]; 1 week 30° C., pH 7.1, 5.5 mg/mL HA, 100 mM NaCl): 68%; rHuPH20 activity (initial 600 U/mL) [1, 4]: 510 U/mL; retained % of the original activity [1, 4]: 85%; rHuPH20 enzymatic activity ([1]; 2-8° C., 5 Months, pH 7.0, 50 mM NaCl): 494.4796; rHuPH20 enzymatic activity ([1]; 2-8° C., 5 Months, pH 7.0, 80 mM NaCl): 575.3274; rHuPH20 enzymatic activity ([1]; 2-8° C., 5 Months, pH 7.0, 110 mM NaCl): 615.3546; rHuPH20 enzymatic activity ([1]; 2-8° C., 5 Months, pH 7.0, 140 mM NaCl): 582.4274; rHuPH20 enzymatic activity ([1]; 2-8° C., 5 Months, pH 7.2, 50 mM NaCl): 481.6035; rHuPH20 enzymatic activity ([1]; 2-8° C., 5 Months, pH 7.2, 80 mM NaCl): 566.2521; rHuPH20 enzymatic activity ([1]; 2-8° C., 5 Months, pH 7.2, 110 mM NaCl): 593.2027; rHuPH20 enzymatic activity ([1]; 2-8° C., 5 Months, pH 7.2, 140 mM NaCl): 585.9948; rHuPH20 enzymatic activity ([1]; 2-8° C., 5 Months, pH 7.4, 50 mM NaCl): 526.6628; rHuPH20 enzymatic activity ([1]; 2-8° C., 5 Months, pH 7.4, 80 mM NaCl): 564.7769; rHuPH20 enzymatic activity ([1]; 2-8° C., 5 Months, pH 7.4, 110 mM NaCl): 618.3856; rHuPH20 enzymatic activity ([1]; 2-8° C., 5 Months, pH 7.4, 140 mM NaCl): 585.9813; rHuPH20 enzymatic activity ([1]; 2-8° C., 5 Months, pH 7.6, 80 mM NaCl): 546.4209; rHuPH20 enzymatic activity ([1]; 2-8° C., 5 Months, pH 7.6, 110 mM NaCl): 581.6326; rHuPH20 enzymatic activity ([1]; 2-8° C., 5 Months, pH 7.6, 140 mM NaCl): 594.6197; rHuPH20 enzymatic activity ([1]; 2-8° C., 9 Months, pH 7.0, 50 mM NaCl): 436.5115; rHuPH20 enzymatic activity ([1]; 2-8° C., 9 Months, pH 7.0, 80 mM NaCl): 513.9692; rHuPH20 enzymatic activity ([1]; 2-8° C., 9 Months, pH 7.0, 110 mM NaCl): 551.0218; rHuPH20 enzymatic activity ([1]; 2-8° C., 9 Months, pH 7.0, 140 mM NaCl): 554.6513; rHuPH20 enzymatic activity ([1]; 2-8° C., 9 Months, pH 7.2, 50 mM NaCl): 451.8324; rHuPH20 enzymatic activity ([1]; 2-8° C., 9 Months, pH 7.2, 80 mM NaCl): 518.0740; rHuPH20 enzymatic activity ([1]; 2-8° C., 9 Months, pH 7.2, 110 mM NaCl): 553.1847; rHuPH20 enzymatic activity ([1]; 2-8° C., 9 Months, pH 7.2, 140 mM NaCl): 536.7846; rHuPH20 enzymatic activity ([1]; 2-8° C., 9 Months, pH 7.4, 50 mM NaCl): 466.1871; rHuPH20 enzymatic activity ([1]; 2-8° C., 9 Months, pH 7.4, 80 mM NaCl): 509.9032; rHuPH20 enzymatic activity ([1]; 2-8° C., 9 Months, pH 7.4, 110 mM NaCl): 560.4847; rHuPH20 enzymatic activity ([1]; 2-8° C., 9 Months, pH 7.4, 140 mM NaCl): 542.4534; rHuPH20 enzymatic activity ([1]; 2-8° C., 9 Months, pH 7.6, 50 mM NaCl): 464.8964; rHuPH20 enzymatic activity ([1]; 2-8° C., 9 Months, pH 7.6, 80 mM NaCl): 515.3382; rHuPH20 enzymatic activity ([1]; 2-8° C., 9 Months, pH 7.6, 110 mM NaCl): 531.9202; rHuPH20 enzymatic activity ([1]; 2-8° C., 9 Months, pH 7.6, 140 mM NaCl): 523.5385; rHuPH20 enzymatic activity ([1]; insulin/rHuPH20 follow up study, starting): 650 U/mL; rHuPH20 activity (initial 600 U/mL) ([1]; rHuPH20/insulin, 1 week 30° C., pH 7.1, 1 mg/mL HA): 341 U/mL; rHuPH20 enzymatic activity ([1]; regular insulin/rHuPH20, 2-8° C., 5 Months, pH 7.6, 50 mM NaCl): 508.0571; Average particle size (DLS) ([2]; 20 ° C.): 9.48; Average particle size (DLS) ([2]; 22 ° C.): 9.19; Average particle size (DLS) ([2]; 24 ° C.): 9.89; Average particle size (DLS) ([2]; 26 ° C.): 9.96; Average particle size (DLS) ([2]; 28 ° C.): 9.27; Average particle size (DLS) ([2]; 30 ° C.): 8.94; Average particle size (DLS) ([2]; 32 ° C.): 8.96; Average particle size (DLS) ([2]; 34 ° C.): 9.42; Average particle size (DLS) ([2]; 36 ° C.): 9.28; Average particle size (DLS) ([2]; 38 ° C.): 8.91; Average particle size (DLS) ([2]; 40 ° C.): 9.39; Average particle size (DLS) ([2]; 42 ° C.): 9.72; Average particle size (DLS) ([2]; 44 ° C.): 11.36; Average particle size (DLS) ([2]; 46 ° C.): 13.08; Average particle size (DLS) ([2]; 48 ° C.): 21.35; Average particle size (DLS) ([2]; 50 ° C.): 22.74; Average particle size (DLS) ([2]; 52 ° C.): 28.50; Average particle size (DLS) ([2]; 54 ° C.): 32.95; Average particle size (DLS) ([2]; 56 ° C.): 37.01; reduction of Tm of rHuPH20 [3]: about 2 °C
